Test results from patent US20240092914A1 (NEW PARADIGM BIOSCIENCES USA, published 2024).
Changes are numbered by the printed parent chain. Several values for one entry are separate records, joined by “and”; a condition that tells them apart may be missing. Identical values can stand only once. Values belong to the molecule of their own block, whether it stands above or below them.

Key:
[1] = molecular target: human BDCA2 on human plasmacytoid dendritic cells (human) (UniProt Q8WTT0); experiment: flow cytometry on human PBMC with APCCy7-labelled control antibody, gate Lin- then CD4+CD123+ (pDC)
[2] = molecular target: T1, recombinant human BDCA2 extracellular domain (UniProt Q8WTT0, residues 45-213) (human, UniProt Q8WTT0 45-213); experiment: SPR (Biacore), antibody as ligand, HsCD303HIS as sample, 25 °C, 1:1 Binding fit; Table 1 prints 7.29 x 10^5, but the sheet's exponent fits the printed kd 3.271E-4 and KD 4.487E-9
T1 construct: range 45-213; also called recombinant BDCA2 proteins; BDCA2 proteins
T1 sequence (looked up): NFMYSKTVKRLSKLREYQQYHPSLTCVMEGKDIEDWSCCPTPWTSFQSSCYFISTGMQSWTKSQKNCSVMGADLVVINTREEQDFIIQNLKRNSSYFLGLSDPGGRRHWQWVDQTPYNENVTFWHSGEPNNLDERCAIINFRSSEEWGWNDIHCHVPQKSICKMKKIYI

[3] = molecular target: T1, recombinant human BDCA2 extracellular …; experiment: SPR (Biacore), antibody captured on anti-human Fc chip, recombinant BDCA2 flowed over; small-scale batch
Experimental: (§1) BDCA2 antibody binding kinetics were measured using a Biacore surface plasmon resonance (SPR) instrument (GE Life Sciences). Briefly, anti-BDCA2 antibodies were captured on an anti-human Fc chip. The recombinant BDCA2 proteins were then flowed over the captured antibodies over a range of concentrations, at a rate of 50 μL/minute. The data was analyzed to determine kinetic constants using the BIAevaluation software package (GE Life Sciences). The sensorgrams of SPR based affinity testing for all 24 antibodies are shown in FIG. 55, and the biophysical characteristics of all 24 antibodies are summarized in Table 5.

[4] = molecular target: T2, human BDCA2 on human plasmacytoid dendritic cells (human, UniProt Q8WTT0 1-213); experiment: cell-based or functional assay
T2 sequence (looked up): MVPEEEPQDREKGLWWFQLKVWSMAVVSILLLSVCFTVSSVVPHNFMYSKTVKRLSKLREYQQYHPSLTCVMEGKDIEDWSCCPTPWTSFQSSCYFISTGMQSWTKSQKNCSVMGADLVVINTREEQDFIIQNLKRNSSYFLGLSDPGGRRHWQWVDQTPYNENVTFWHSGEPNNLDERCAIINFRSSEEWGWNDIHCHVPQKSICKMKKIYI

[5] = molecular target: T3, recombinant rhesus BDCA2 extracellular domain (UniProt A0A1D5QFY5, residues 45-212) (rhesus, UniProt G7N5W2 45-211); experiment: SPR (Biacore), antibody captured on Protein A chip, recombinant BDCA2 ECD flowed over
T3 construct: also called Monkey BDCA2
T3 sequence: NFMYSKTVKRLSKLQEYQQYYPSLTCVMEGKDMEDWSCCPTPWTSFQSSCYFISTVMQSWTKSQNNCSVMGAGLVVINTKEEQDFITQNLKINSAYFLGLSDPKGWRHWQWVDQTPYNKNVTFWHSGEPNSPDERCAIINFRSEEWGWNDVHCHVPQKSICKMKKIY
Experimental: (§2) BDCA2 antibody binding kinetics were measured using a Biacore surface plasmon resonance (SPR) instrument (GE Life Sciences). Briefly, anti-BDCA2 antibodies were captured on a Protein A sensor chip (GE Life Sciences). The recombinant BDCA2 proteins were then flowed over the captured antibodies over a range of concentrations, at a rate of 50 μL/minute. The data was analyzed to determine kinetic constants using the BIAevaluation software package (GE Life Sciences).

[6] = molecular target: T1, recombinant human BDCA2 extracellular …; experiment: as above
Experimental: as §2

[7] = molecular target: T1, recombinant human BDCA2 extracellular …; experiment: SPR / in vitro binding to BDCA2 proteins (FIG. 7, FIG. 8)
[8] = molecular target: T4, BDCA-2 antigen (Biorbyt CLEC4C orb358925) (human, UniProt Q8WTT0); experiment: ELISA, plate coated with BDCA-2 antigen, detection with HRP anti-human IgG Fc, A450 corrected by A590
T4 construct: recombinant protein, construct not described; It is kept apart from m4 because it is a different preparation; also called human BDCA2 antigen
T4 sequence (antigen, looked up): T1 sequence (looked up)
Experimental: Briefly, Nunc MaxiSorp 96-well plates were coated with BDCA-2 antigen (Biorbyt CLEC4C orb358925) overnight at 4° C. After washing, the plates were blocked by the Blocking Buffer (1% BSA in 1×PBS). […] After 1 hour incubation at room temperature, the plates were washed and added with the secondary antibody (HIRP-conjugated Goat anti-Human IgG Fc antibody; ThermoFisher A18829) for 1 hour at RT. The signals were developed by adding TMB substrate reagent (ThermoFisher 34021). The signals at 450 nm and 590 nm were read on the plate reader.

[9] = molecular target: T1, recombinant human BDCA2 extracellular …; experiment: SPR (Biacore), recombinant BDCA2; large-scale (100 mL) batch
Experimental: as §1

% of the gated Lin-CD123+ cells in Q2 (CD123+, APCCy7+) [1]: 7.29%
Molecule: mIgG1-APCCy7 (antibody)

kon [2]: 72900 M⁻¹ s⁻¹
Kd [3]: 1.19 nM
koff [3]: 0.000156 s⁻¹
kon [3]: 131000 M⁻¹ s⁻¹
IC50 of inhibition of IFNα production by CpG-stimulated human PBMC (multiple donors) [4]: ~3 ng/mL
Kd [5]: 9.2 nM
koff [5]: 0.00157 s⁻¹
kon [5]: 170000 M⁻¹ s⁻¹
koff [6]: 0.000327 s⁻¹
Kd [7]: ~1 nM
koff [7]: ~0.00033 s⁻¹
kon [7]: ~210000 M⁻¹ s⁻¹
EC50 (read off the curve) [8]: ~0.5 nM and ~0.3 nM
B1: NPB-303 humanized anti-BDCA2 monoclonal antibody (huIgG1) (antibody, V domains shown)
VH: EVQLVESGGGLVKPGGSLRLSCAASGFTFSTMSWVRQAPGKRLEWVASISSGGSTYYPDSVKGRFTISRDNAKNSLYLQMNSLRAEDTAVYYCARPSYDGYSSWFAYWGQGTLVTVSS
VL: EIVLTQSPATLSLSPGERATLSCKASQSVDYDGDGFMNWYQQKPGQAPRLLIYTASNLESGVPARFSGSGSGTDFTLTISSLEPEDFAVYYCQQSNEDPWTFGGGTKVEIKR
notes: Humanized from mouse mAb 12b, human IgG1/kappa

Kd [3]: 1.01 nM
koff [3]: 0.000145 s⁻¹
kon [3]: 144000 M⁻¹ s⁻¹
B2: NPB-303_A (antibody, V domains shown)
VH: B1 VH with D99E
VL: EIVLTQSPATLSLSPGERATLSCKASQSVDYDGDGFMNWYQQKPGQAPRLLIYTASNLESGVPARFSGSGSGTDFTLTISSLEPEDFAVYYCQQSNEDPWTFGGGTKVEIK
notes: whole antibody captured by anti-human Fc

Kd [3]: 1.49 nM
koff [3]: 0.000159 s⁻¹
kon [3]: 107000 M⁻¹ s⁻¹
B3: NPB-303_A.H (antibody, V domains shown)
VH: B1 VH with D99E
VL: B2 VL with D32S, D34S
notes: as for B2

Kd [3]: 1.77 nM
koff [3]: 0.000195 s⁻¹
kon [3]: 110000 M⁻¹ s⁻¹
B4: NPB-303_C.F (antibody, V domains shown)
VH: B1 VH with D99S
VL: B2 VL with D32E, G35A
notes: as for B2

Kd [3]: 1.89 nM
koff [3]: 0.000237 s⁻¹
kon [3]: 125000 M⁻¹ s⁻¹
B5: NPB-303_C.E (antibody, V domains shown)
VH: B1 VH with D99S
VL: B2 VL with G33A, G35A
notes: as for B2

Kd [3]: 2.63 nM
koff [3]: 0.000286 s⁻¹
kon [3]: 109000 M⁻¹ s⁻¹
B6: NPB-303_B.G (antibody, V domains shown)
VH: B1 VH with G100A
VL: B2 VL with G33A, D34E
notes: as for B2

Kd [3]: 1.49 nM
koff [3]: 0.000183 s⁻¹
kon [3]: 123000 M⁻¹ s⁻¹
B7: NPB-303_A.E (antibody, V domains shown)
VH: B1 VH with D99E
VL: B2 VL with G33A, G35A
notes: as for B2

Kd [3]: 1.74 nM
koff [3]: 0.000187 s⁻¹
kon [3]: 107000 M⁻¹ s⁻¹
B8: NPB-303_F (antibody, V domains shown)
VH: B1 VH
VL: B2 VL with D32E, G35A
notes: as for B2

Kd [3]: 1.41 nM
koff [3]: 0.000164 s⁻¹
kon [3]: 116000 M⁻¹ s⁻¹
B9: NPB-303_A.F (antibody, V domains shown)
VH: B1 VH with D99E
VL: B2 VL with D32E, G35A
notes: as for B2

Kd [3]: 1.25 nM
koff [3]: 0.000144 s⁻¹
kon [3]: 115000 M⁻¹ s⁻¹
B10: NPB-303_D (antibody, V domains shown)
VH: B1 VH
VL: B2 VL with D32E, D34E
notes: as for B2

Kd [3]: 2.06 nM
koff [3]: 0.000193 s⁻¹
kon [3]: 93900 M⁻¹ s⁻¹
B11: NPB-303_B (antibody, V domains shown)
VH: B1 VH with G100A
VL: B2 VL
notes: as for B2

Kd [3]: 1.2 nM
koff [3]: 0.000165 s⁻¹
kon [3]: 138000 M⁻¹ s⁻¹
B12: NPB-303_C (antibody, V domains shown)
VH: B1 VH with D99S
VL: B2 VL
notes: as for B2

Kd [3]: 3.47 nM
koff [3]: 0.000272 s⁻¹
kon [3]: 78500 M⁻¹ s⁻¹
B13: NPB-303_B.H (antibody, V domains shown)
VH: B1 VH with G100A
VL: B2 VL with D32S, D34S
notes: as for B2

Kd [3]: 3.44 nM
koff [3]: 0.000232 s⁻¹
kon [3]: 67600 M⁻¹ s⁻¹
B14: NPB-303_B.F (antibody, V domains shown)
VH: B1 VH with G100A
VL: B2 VL with D32E, G35A
notes: as for B2

Kd [3]: 0.998 nM
koff [3]: 0.000142 s⁻¹
kon [3]: 142000 M⁻¹ s⁻¹
B15: NPB-303_A.G (antibody, V domains shown)
VH: B1 VH with D99E
VL: B2 VL with G33A, D34E
notes: as for B2

Kd [3]: 1.31 nM
koff [3]: 0.000166 s⁻¹
kon [3]: 126000 M⁻¹ s⁻¹
B16: NPB-303_G (antibody, V domains shown)
VH: B1 VH
VL: B2 VL with G33A, D34E
notes: as for B2

Kd [3]: 2.02 nM
koff [3]: 0.000197 s⁻¹
kon [3]: 97400 M⁻¹ s⁻¹
B17: NPB-303_C.H (antibody, V domains shown)
VH: B1 VH with D99S
VL: B2 VL with D32S, D34S
notes: as for B2

Kd [3]: 1.06 nM
koff [3]: 0.000138 s⁻¹
kon [3]: 130000 M⁻¹ s⁻¹
Kd [9]: 0.927 nM
koff [9]: 0.000133 s⁻¹
kon [9]: 144000 M⁻¹ s⁻¹
B18: NPB-303_A.D (antibody, V domains shown)
VH: B1 VH with D99E
VL: B2 VL with D32E, D34E
notes: whole antibody captured by anti-human Fc; Made at small (3 mL) and large (100 mL) scale

Kd [3]: 4.77 nM
koff [3]: 0.000409 s⁻¹
kon [3]: 85600 M⁻¹ s⁻¹
B19: NPB-303_B.E (antibody, V domains shown)
VH: B1 VH with G100A
VL: B2 VL with G33A, G35A
notes: as for B2
